Experiment [1] addresses T1, mouse transferrin receptor (mTfR) fused to EGFP, on CHO cells (mouse, UniProt Q62351 1-763).
T1 construct: whole, on cells; also called mouse TfR; CHO-mTfR-EGFP; not shown: EGFP
The experiment in a line: flow cytometry, CHO cells. As to the method: (§1) The binding properties of VHHs with affinity for the TfR from different species (i.e., human (h), mouse (m) and rhesus monkey (rh)) were tested using flow cytometry, and apparent affinities (Kd app) were determined. All experiments were performed in 96 well plates using 2×10⁵ cells/well, at 4° C. with shaking. CHO cell lines expressing the hTfR, mTfR or rhTfR fused to EGFP were saturated with PBS/BSA 2% solution during 30 min to avoid nonspecific binding, followed by incubation with purified VHHs at increasing concentrations for 1 hr. After one wash in PBS/BSA 2%, cells were incubated for 1 hr with an anti-6His tag antibody (mouse), washed twice with PBS/BSA 2%, and incubated for 1 hr with an Alexa647-conjugated anti-mouse secondary antibody. After two last washes in PBS/BSA 2%, cells were fixed by incubation for 15 min with PBS/PFA 2%, washed once with PBS and finally resuspended in PBS. Fluorescence levels were assessed using an Attune NxT flow cytometer (Thermo Fisher Scientific). Experimental data were fitted with GraphPad Prism® software using a nonlinear fit to determine the apparent Kd constants. […] Table 5 hereafter summarizes apparent Kd obtained for the tested VHHs.
In general terms: Flow cytometry measures light scatter and fluorescence of single cells or particles in a stream.

The target in experiment [2] is T2, human transferrin receptor (hTfR) fused to EGFP, on CHO cells (human, UniProt P02786 1-760).
T2 construct: whole, on cells; also called human TfR; CHO-hTfR-EGFP; not shown: EGFP from pEGFP-C1 vector, fused to the N-terminal (intracellular) end of hTfR
Nature of the experiment: apparent Kd, flow cytometry, CHO cells. The gist of the method:
(§2)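 CHO cells expressing TfR-EGFP fusions, blocked in PBS/BSA 2%, then incubated with increasing VHH concentrations for 1 hr at 4° C. Bound VHH detected via anti-6His antibody and Alexa647 secondary, cells PFA-fixed, read by flow cytometry. Apparent Kd from nonlinear fit.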

In experiment [3] the target is T3, rhesus monkey transferrin receptor (rhTfR) fused to EGFP, on CHO cells (rhesus monkey).
T3 construct: whole, on cells; also called rhesus monkey TfR
The experiment in a line: apparent Kd, flow cytometry, CHO cells. The gist of the method: as §2

For experiment [4], the target named is T2, human transferrin receptor (hTfR) fused …. Nature of the experiment: competition flow cytometry on CHO-hTfR-EGFP cells, 4 C; VHH competitor in dilution series, phage-H1 tracer at EC80, anti-M13-A647. How it is done:
FIGS. 17A-17D: Competition assays between VHHs and phage-VHHs. CHO-hTfR-EGFP cells were incubated 1 hr at 4° C. with VHHs (competitors) at increasing concentrations. Phage-VHHs (tracers) were then added at EC80 and incubated for 1 more hr. Phage-VHHs were detected with an anti-M13-A647 antibody (1/200). Fluorescence levels were assessed using flow cytometry. The ratio of fluorescence intensity for each point was normalized with the corresponding EGFP signal (receptor expression) and gave rise to the arbitrary unit. Data are presented as mean±SEM of independent experiments.
To evaluate whether selected VHHs compete one with the other for binding to the TfR receptor, competition assays using flow cytometry experiments were performed. All experiments were performed in 96 well plates using 2×10⁵ cells/well, at 4° C. with shaking. CHO cell line expressing the hTfR fused to EGFP was saturated with PBS/BSA 2% solution during 30 min to avoid nonspecific binding, followed by incubation with VHH (competitors) at increasing concentrations for 1 hr. Then, phage-VHHs (tracers) at EC80 were added and incubated 1 hr more. To detect the phage-VHHs, cells were washed twice with PBS/BSA 2% and incubated for 1 hr with an Alexa647-conjugated anti-M13 antibody. […] Fluorescence levels were assessed using an Attune NxT flow cytometer (Thermo Fisher Scientific). […]

In experiment [5] the target is T4, murine TfR expressed by murine neuroblastoma Neuro-2a cells (mouse, UniProt Q62351 1-763). The experiment in a line: cell-based or functional assay.
Experiment [6] has as its target T4, murine TfR expressed by murine …. The experiment in a line: competition with C5-Alexa680 (100 nM) on living Neuro-2a cells, 3 hrs at 37 C, flow cytometry; Ki/app, mean ± SD. As to the method: The binding of VHH-Oligo and VHH-hFc-Oligo conjugates to mTfR was evaluated using a competition assay on living cells expressing the receptor of interest, namely murine neuroblastoma Neuro-2a cells (N2a). N2a cells were grown in Dulbecco's Modified Eagle Medium (DMEM) GlutaMAX supplemented with 10% v/v FBS in 5% CO₂ at 37° C. Cells were seeded two days before experiments in 96-well plates at a density of 50.000 cells/well. […] Resuspended cells were transferred in a 96-deepwell plate (V-bottom) containing 1% fetal bovine serum (FBS)/0.02% sodium azide in phosphate-buffered saline (PBS) and then centrifuged for 5 min at 2000 rpm at 4° C. After removing the supernatant, 5 mM EDTA in D-PBS and 4% paraformaldehyde (PFA) (v/v 1:1) were added into wells to fix cells for 15 min at room temperature. PFA was removed by centrifugation (5 min, 3000 rpm, 4° C.) and cells were resuspended with 5 mM EDTA in D-PBS. Then the cellular A680-associated fluorescence signal was quantified using an Attune™ NxT flow cytometer (Thermo Fisher Scientific) equipped with Attune™ NxT v3.1.2. Experimental data (experimental triplicates) were fitted with GraphPad Prism® software using a nonlinear fit to determine the apparent Ki inhibition constants.

The target in experiment [7] is T2, human transferrin receptor (hTfR) fused …. Nature of the experiment: apparent Kd, cell-based assay.
The target is the same in experiment [8]. The experiment in a line: cell-based assay on hTfR; Kd/app (the text, paragraph 408, gives 16.7 nM for this molecule).
Experiment [9] shares this target. The experiment in a line: apparent Kd, flow cytometry, CHO cells. This is another data set of the same source.
For experiment [10], the target named is T1, mouse transferrin receptor (mTfR) fused …. Nature of the experiment: flow cytometry on CHO-mTfR-EGFP cells, 1 hr at 4 C, anti-6His + Alexa647 anti-mouse. As to the method: (§3) (A) CHO-hTfR-EGFP and CHO-mTfR-EGFP cells were incubated 1 hr at 4° C. with various concentrations of VHHs, detected with a mouse anti-6His (1/1000) and an Alexa647-conjugated anti-mouse secondary antibody (1/400). Measurements were performed using flow cytometry. The ratio of fluorescence intensity for each point was normalized with the corresponding EGFP signal (receptor expression) and gave rise to the arbitrary unit. Data are presented as mean±SEM of 3 independent experiments. (B) Characteristics of VHHs: Molecular Weight (Da); Theoretical pI; Apparent Kd on human TfR (nM); Apparent Kd on mouse TfR (nM). Data are presented as mean±SEM of 3 independent experiments. NB: no binding, LB: low binding.
(§4) All experiments were performed in 96 well plates using 2×10⁵ cells/well, at 4° C. with shaking. CHO cell lines stably expressing the hTfR or the mTfR fused to EGFP or CHO WT cells were saturated with PBS/BSA 2% solution during 30 min to avoid non-specific binding, followed by incubation with purified VHHs at concentrations ranging from 50 μM to 5 μM for 1 hr. After one wash in PBS/BSA 2%, cells were incubated for 1 hr with an anti-6His tag antibody (mouse), washed twice with PBS/BSA 2%, and incubated for 45 min with an Alexa647-conjugated anti-mouse secondary antibody. […] Fluorescence levels were assessed using an Attune NxT Flow Cytometer (Thermo Fisher Scientific).

In experiment [11] the target is T2, human transferrin receptor (hTfR) fused …. Nature of the experiment: flow cytometry on CHO-hTfR-EGFP cells, 1 hr at 4 C, anti-6His + Alexa647 anti-mouse; apparent Kd, mean ± SEM of 3 experiments. As to the method: as §3, §4
Experiment [12] deals with T1, mouse transferrin receptor (mTfR) fused …. The experiment in a line: flow cytometry on CHO-mTfR-EGFP cells, 1 hr at 4 C, anti-6His + Alexa647 anti-mouse; apparent Kd, mean ± SEM of 3 experiments. How it is done: as §3, §4
Experiment [13] has as its target T2, human transferrin receptor (hTfR) fused …. The experiment in a line: flow cytometry, CHO cells. How it is done: as §1
For experiment [14] the target is unchanged. Nature of the experiment: cell-based assay on hTfR; Kd/app (the text, paragraph 408, gives 25.6 nM for this molecule).

Substitutions are numbered along the chain they refer to.

T1 sequence (Q62351 whole entry, the tested form may be a part): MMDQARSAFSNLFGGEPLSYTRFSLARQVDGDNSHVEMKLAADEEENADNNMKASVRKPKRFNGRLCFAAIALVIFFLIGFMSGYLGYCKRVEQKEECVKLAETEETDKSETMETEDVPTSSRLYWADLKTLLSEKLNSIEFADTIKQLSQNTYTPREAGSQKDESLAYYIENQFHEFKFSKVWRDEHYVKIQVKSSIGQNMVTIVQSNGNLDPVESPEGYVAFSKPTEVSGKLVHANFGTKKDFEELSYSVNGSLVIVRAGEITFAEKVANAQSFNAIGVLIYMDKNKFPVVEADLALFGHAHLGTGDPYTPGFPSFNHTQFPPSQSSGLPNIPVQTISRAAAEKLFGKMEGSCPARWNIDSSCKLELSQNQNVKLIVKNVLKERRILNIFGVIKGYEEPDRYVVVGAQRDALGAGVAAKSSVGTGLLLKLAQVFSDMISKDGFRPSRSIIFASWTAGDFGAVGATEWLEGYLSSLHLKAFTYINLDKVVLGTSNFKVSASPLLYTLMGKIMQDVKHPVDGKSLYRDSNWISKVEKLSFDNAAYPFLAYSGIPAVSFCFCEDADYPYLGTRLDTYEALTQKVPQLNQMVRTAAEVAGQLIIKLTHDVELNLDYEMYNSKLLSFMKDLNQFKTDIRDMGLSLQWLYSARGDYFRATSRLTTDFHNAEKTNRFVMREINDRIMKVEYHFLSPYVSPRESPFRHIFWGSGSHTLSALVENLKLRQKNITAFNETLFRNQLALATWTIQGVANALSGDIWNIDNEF
T2 sequence (P02786 whole entry, the tested form may be a part): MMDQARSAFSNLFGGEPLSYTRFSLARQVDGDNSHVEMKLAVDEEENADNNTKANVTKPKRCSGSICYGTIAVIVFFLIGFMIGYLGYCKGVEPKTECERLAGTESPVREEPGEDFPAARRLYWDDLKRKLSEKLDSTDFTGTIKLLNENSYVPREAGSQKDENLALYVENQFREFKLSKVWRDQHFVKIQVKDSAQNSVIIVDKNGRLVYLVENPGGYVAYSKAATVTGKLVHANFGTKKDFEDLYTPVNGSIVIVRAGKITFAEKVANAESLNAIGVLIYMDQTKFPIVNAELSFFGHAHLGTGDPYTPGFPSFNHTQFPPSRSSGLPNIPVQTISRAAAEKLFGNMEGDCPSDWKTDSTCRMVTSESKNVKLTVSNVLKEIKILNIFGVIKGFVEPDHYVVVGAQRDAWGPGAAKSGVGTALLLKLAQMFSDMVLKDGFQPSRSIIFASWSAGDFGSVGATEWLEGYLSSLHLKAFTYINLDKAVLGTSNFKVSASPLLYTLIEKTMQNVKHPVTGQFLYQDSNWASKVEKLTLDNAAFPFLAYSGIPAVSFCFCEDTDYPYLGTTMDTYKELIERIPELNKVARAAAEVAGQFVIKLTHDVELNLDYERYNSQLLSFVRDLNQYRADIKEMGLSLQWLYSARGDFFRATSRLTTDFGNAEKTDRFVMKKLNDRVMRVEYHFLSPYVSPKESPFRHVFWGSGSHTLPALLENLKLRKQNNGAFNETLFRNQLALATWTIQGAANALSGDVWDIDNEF
T4 sequence (Q62351 whole entry): as the sequence (Q62351 whole entry, the tested form may be a part) above

B1: E8 (VHH)
VHH: EVQLVESGGRLVQAGGSLRLSCTASGLAFSTHTMHWFRQAPGKEREFVGAIRWSDEDTEYADSVKGRFTISRDNAKSTVYLQMNNLKPEDTAVYYCAAARGVGTSGHMKYWGQGTQVTVSS
As to B1, the binding result in experiment [1] is “no binding”. The Kd came out at 3.4 nM in experiment [2] and 2.1 nM in experiment [3]. Also, the “IC50 (read off the curve)” value in [4] was about 40 nM.

B2: C5-siSOD1m-5'VP (VHH, not shown: small tags and cut ends)
VHH: EVQLVESGGGVVQPGGSLKLSCVASGTDFSINFIRWYRQAPGKQREFVAGFTATGNTNYADSMKGRFTISRDNTKNAVYLQIDSLKPEDTAVYYCYMLDKWGQGTQVTVSS
modifications: siSOD1m-5'VP siRNA duplex linked by a stable linker (azide/alkyne click) to the VHH
notes: also called VHH-siSOD1m-5'VP wherein VHH is C5
With B2, in experiment [5], the “IC50 of mSOD1 mRNA downregulation, free uptake on Neuro-2a cells” value was 7.4 nM. The Ki in experiment [6] was 164 nM.

B3: C5V30-NT(8-13) (VHH)
VHH: B2 VHH with F29K
Consider B3, for which the Kd was 16.7 nM in experiment [7] and 25.6 nM in experiment [8].

B4: VHH A7 (C5^V7) (VHH)
VHH: B2 VHH with L98A
As to B4, the Kd in experiment [9] amounted to 255 nM. Moreover, in experiment [10], the binding result is given as “binds”.

B5: VHH A6 (C5^V6) (VHH)
VHH: B2 VHH with M97A
With B5, the Kd in experiment [9] is 3 to 4 nM; in experiment [11] it was 3.4 nM; in experiment [12], 182 nM.

B6: D12 (neg ctrl) (VHH)
VHH: EVQLVESGGGLVQPGGSLRLSCAASGFTFGSYVMSWVRQAPGKGPEWVSTVSSGGGTTYYADSVKGRFTISRDNAQNTLYLQMNSLKPEDTAVYYCATGRTGLGEGDHRGQGTQVTSSAAAEQKLISEEDLNGAAHHHHHHGS
notes: also called control VHH D12
B6: the binding result in experiment [13] and in experiment [1] was “no binding” in each case.

B7: B8V31-NT(8-13) (VHH)
VHH: EVQLVESGGGVVQPGGSLRLSCAASGEIKSINFMRWYRQAPGKQREWVAGFTRDGSTNYPDSAKGRFTISRDNAKNTVYLQIDSLKPEDTAVYYCYMLDTWGQGTQVTVSS
In the case of B7, the Kd in [7] worked out at 25.6 nM; in experiment [14], 16.7 nM.

The record behind these values is patent US20230414780A1 (VECT HORUS, published 2023).
